This test addresses c-MYC:MAX bHLHZip heterodimer (MYC 352-437, MAX 22-102) (human, UniProt P01106-1 352-437; P61244 22-102). Nature of the test: NMR titration; unlabeled MYC:MAX dimer titrated into 15N-labeled INI1 RPT1 (147 uM); 1H,15N HSQC; fast exchange; shifts fitted to a single-site binding curve; 25 °C. Particulars: both partners purified.

Here are results for one molecule from paper PMC6398391 (The FEBS journal, 2018).

Chain of c-MYC:MAX bHLHZip heterodimer (MYC 352-437, MAX 22-102) (P01106 367-452, chain 1 of 2): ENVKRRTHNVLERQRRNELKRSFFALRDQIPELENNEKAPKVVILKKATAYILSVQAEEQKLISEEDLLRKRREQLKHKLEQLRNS
Chain of c-MYC:MAX bHLHZip heterodimer (MYC 352-437, MAX 22-102) (P61244 22-102, chain 2 of 2): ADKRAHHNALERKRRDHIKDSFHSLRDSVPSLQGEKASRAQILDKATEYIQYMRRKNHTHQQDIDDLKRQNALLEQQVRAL

B1: INI1/hSNF5 RPT1 (residues 184-258) (domain or fragment, human, UniProt Q12824 184-258, looked up)
chain: EVLVPIRLDMEIDGQKLRDAFTWNMNEKLMTPEMFSEILCDDLDLNPLTFVPAIASAIRQQIESYPTDSILEDQS
On to B1, for which the Kd came out at 44 ± 6 µM.
